# B1: Rfa1 DNA-binding domain-A (DBD-A), residues 178-294 (domain or fragment, S. cerevisiae, UniProt P22336 178-294, looked up)
# chain: SQKTRPIFAIEQLSPYQNVWTIKARVSYKGEIKTWHNQRGDGKLFNVNFLDTSGEIRATAFNDFATKFNEILQEGKVYYVSKAKLQPAKPQFTNLTHPYELNLDRDTVIEECFDESN
# notes: Rfa1 (RPA70 in humans), S. cerevisiae Replication Protein A largest subunit, DBD-A, residues 178-294; amplified from the codon-optimized RPA expression plasmid, cloned into pOPINJ; 3C-cleavable GST fusion; also called Rfa1-DBD-A; source: E. coli BL21 (DE3), purified (glutathione sepharose 4B, on-column 3C cleavage, SEC)
# B2: Rfa1 DBD-A (residues 178-294) phosphomimetic S178D (domain or fragment, S. cerevisiae, UniProt P22336 178-294, looked up)
# chain: DQKTRPIFAIEQLSPYQNVWTIKARVSYKGEIKTWHNQRGDGKLFNVNFLDTSGEIRATAFNDFATKFNEILQEGKVYYVSKAKLQPAKPQFTNLTHPYELNLDRDTVIEECFDESN
# notes: Rfa1, S. cerevisiae, DBD-A, residues 178-294 with S178D (first residue of the fragment); also called DBD-A^S178D; S178D mutant DBD-A; source: E. coli BL21 (DE3), purified (glutathione sepharose 4B, on-column 3C cleavage, SEC)
# Molecular target: T1, Rfa3 DNA-binding domain-E (DBD-E), OB domain, residues 1-99 (S. cerevisiae, UniProt P26755 1-99, fluorescent label NT-495 (Monolith NT protein-labeling Kit Blue-Cys) on free cysteine residues)
# T1 construct: Rfa3 (RPA14 in humans), S. cerevisiae Replication Protein A smallest subunit, residues 1-99; the C-terminal trimerisation helix is removed; 3C-cleavable GST fusion; also called Rfa3-OB; Rfa3-OB domain; source: E. coli BL21 (DE3), purified (glutathione sepharose 4B, on-column 3C cleavage, SEC)
# T1 sequence (P26755 1-99): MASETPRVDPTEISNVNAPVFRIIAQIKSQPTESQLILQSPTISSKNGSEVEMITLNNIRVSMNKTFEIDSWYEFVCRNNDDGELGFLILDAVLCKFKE
# Assay: MST; 50 nM NT-495-labeled DBD-E (or mutant) mixed with equal volumes of a dilution series of DBD-A or DBD-A^S178D; 20 mM Tris pH 7.5, 150 mM NaCl, 0.5 mM TCEP, 0.01% Tween-20, 0.1 mg/ml BSA; 25 °C; apparent EC50 from the Hill equation
# Settings: both partners purified
row,Binder,EC50 [µM]
1,B1,~100
2,B2,~30
